Source: US20190170753A1 (ICAHN SCHOOL OF MEDICINE AT MOUNT SINAI, published 2019)
Where no end group is shown, it is not given here.

Columns and labels:
[1] = molecular target: T1, C113WT biotin labeled HCV core peptide (hepatitis C virus, also: biotin labeled, position not given here); test: capture EIA; Ab 500 ng/mL; bt-peptide 500 ng/mL
T1 peptide: RGSRPSWGPTD

[2] = molecular target: T2, Mut1T110N biotin labeled HCV core peptide (hepatitis C virus, biotin labeled (position not given)); test: capture EIA; Ab 1000 ng/mL; bt-peptide 500 ng/mL
T2 peptide: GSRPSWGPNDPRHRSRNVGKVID

[3] = molecular target: T3, Mut6T110S biotin labeled HCV core peptide (hepatitis C virus, biotin labeled (position not given)); test: capture EIA; Ab 1000 ng/mL; bt-peptide 500 ng/mL
[4] = molecular target: T1, C113WT biotin labeled HCV core peptide; test: capture EIA; Ab 1000 ng/mL; bt-peptide 500 ng/mL
Procedure: (§1) Assay wells were coated with sheep anti-mouse IgG Fc specific antibody and incubated overnight. The coating solution was then removed; the wells blocked using BSA/tween in PBS and then washed with dH2O. […] Next, biotin labeled peptides (diluted to 500 ng/mL in block) were added, the plates incubated for 10 minutes while shaking at 700 rpm and then washed. Peroxidase conjugated streptavidin (diluted to 200 ng/mL in block) was then added to all assay wells, incubated for 20 minutes while shaking at 700 rpm and then washed. Finally, color was developed using OPD and signal quenched using 1N H₂SO₄. Signal was read at 492 nm.

[5] = molecular target: T4, C113T109N biotin labeled HCV core peptide (hepatitis C virus, also: biotin labeled, position not given here); test: capture EIA; Ab 1000 ng/mL; bt-peptide 500 ng/mL
T4 construct: also called C113T110N
T4 peptide: RGSRPSWGPND

[6] = molecular target: T5, 92-133 biotin labeled HCV core peptide (hepatitis C virus, UniProt Q9WMX2 92-133, chain 1: biotin label (bt-pep). Its position and any spacer are not visible in the passages shown.); test: capture EIA; Ab 1000 ng/mL; bt-peptide 500 ng/mL
T5 construct: Only the label 92-133 is printed
T5 peptide: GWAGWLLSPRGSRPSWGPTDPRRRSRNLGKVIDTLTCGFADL
Procedure: as §1

[7] = molecular target: T6, WT1STHV biotin labeled HCV core peptide (hepatitis C virus, biotin labeled (position not given)); test: capture EIA; Ab 1000 ng/mL; bt-peptide 500 ng/mL
T6 peptide: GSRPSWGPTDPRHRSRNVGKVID

[8] = molecular target: T2, Mut1T110N biotin labeled HCV core …; test: capture EIA; Ab 2000 ng/mL; bt-peptide 500 ng/mL
Procedure: as §1

[9] = molecular target: T3, Mut6T110S biotin labeled HCV core …; test: capture EIA; Ab 2000 ng/mL; bt-peptide 500 ng/mL
Procedure: as §1

[10] = molecular target: T1, C113WT biotin labeled HCV core peptide; test: capture EIA; Ab 2000 ng/mL; bt-peptide 500 ng/mL
Procedure: as §1

[11] = molecular target: T4, C113T109N biotin labeled HCV core …; test: capture EIA; Ab 2000 ng/mL; bt-peptide 500 ng/mL
Procedure: as §1

[12] = molecular target: T5, 92-133 biotin labeled HCV core peptide; test: capture EIA; Ab 2000 ng/mL; bt-peptide 500 ng/mL
Procedure: as §1

[13] = molecular target: T6, WT1STHV biotin labeled HCV core peptide; test: capture EIA; Ab 2000 ng/mL; bt-peptide 500 ng/mL
Procedure: as §1

[14] = molecular target: T2, Mut1T110N biotin labeled HCV core …; test: capture EIA; Ab 62.5 ng/mL; bt-peptide 500 ng/mL
Procedure: as §1

[15] = molecular target: T3, Mut6T110S biotin labeled HCV core …; test: capture EIA; Ab 62.5 ng/mL; bt-peptide 500 ng/mL
Procedure: as §1

[16] = molecular target: T1, C113WT biotin labeled HCV core peptide; test: capture EIA; Ab 62.5 ng/mL; bt-peptide 500 ng/mL
Procedure: as §1

[17] = molecular target: T4, C113T109N biotin labeled HCV core …; test: capture EIA; Ab 62.5 ng/mL; bt-peptide 500 ng/mL
Procedure: as §1

[18] = molecular target: T5, 92-133 biotin labeled HCV core peptide; test: capture EIA; Ab 62.5 ng/mL; bt-peptide 500 ng/mL
Procedure: as §1

[19] = molecular target: T6, WT1STHV biotin labeled HCV core peptide; test: capture EIA; Ab 62.5 ng/mL; bt-peptide 500 ng/mL
Procedure: as §1

[20] = molecular target: T3, Mut6T110S biotin labeled HCV core …; test: capture EIA; Ab 3.906 ng/mL; bt-peptide 500 ng/mL
Procedure: as §1

[21] = molecular target: T2, Mut1T110N biotin labeled HCV core …; test: capture EIA; Ab 15.625 ng/mL; bt-peptide 500 ng/mL
Procedure: as §1

[22] = molecular target: T3, Mut6T110S biotin labeled HCV core …; test: capture EIA; Ab 15.625 ng/mL; bt-peptide 500 ng/mL
Procedure: as §1

[23] = molecular target: T1, C113WT biotin labeled HCV core peptide; test: capture EIA; Ab 15.625 ng/mL; bt-peptide 500 ng/mL
Procedure: as §1

[24] = molecular target: T4, C113T109N biotin labeled HCV core …; test: capture EIA; Ab 15.625 ng/mL; bt-peptide 500 ng/mL
Procedure: as §1

[25] = molecular target: T5, 92-133 biotin labeled HCV core peptide; test: capture EIA; Ab 15.625 ng/mL; bt-peptide 500 ng/mL
Procedure: as §1

[26] = molecular target: T6, WT1STHV biotin labeled HCV core peptide; test: capture EIA; Ab 15.625 ng/mL; bt-peptide 500 ng/mL
Procedure: as §1

B1: Neo4 mouse monoclonal antibody (antibody, V domains shown)
VH: QIQLKESGPAVIKPSQSLSLTCIVSGFSITSSVYCWQWIRQPPGKGLEWMGRICYDGSVDYSPSITSRGTISRDTSLNKVFFQLSSVTNEDTAMYYCSRENHIDYYDTTYPSFDVWGAGTTVTVSS
VL: DIVLTQSPASLIVSLGQRATISCRASKSVNEYGYTYMHWYQQKPGLPPKLLIYLASNLDSGVPARFSGSGSGTDFTLNIHPVEEEDAATYYCQHSRELPYTFGGGTKLEIKR
notes: Mouse hybridoma antibody, isotype IgG1, purified with Protein G; also called HCV Neo4
[1]
  signal at 492 nm: 0.0561 A492
[2]
  signal at 492 nm: 0.0678 A492
[3]
  signal at 492 nm: 1.17 A492
[4]
  signal at 492 nm: 0.222 A492
[5]
  signal at 492 nm: 0.0591 A492
[6]
  signal at 492 nm: 1.41 A492
[7]
  signal at 492 nm: 2 A492
[8]
  signal at 492 nm: 0.0882 A492
[9]
  signal at 492 nm: 1.17 A492
[10]
  signal at 492 nm: 0.0766 A492
[11]
  signal at 492 nm: 0.059 A492
[12]
  signal at 492 nm: 1.31 A492
[13]
  signal at 492 nm: 1.9 A492
[14]
  signal at 492 nm: 0.139 A492
[15]
  signal at 492 nm: 1.11 A492
[16]
  signal at 492 nm: 0.0626 A492
[17]
  signal at 492 nm: 0.111 A492
[18]
  signal at 492 nm: 1.47 A492
[19]
  signal at 492 nm: 1.85 A492
[20]
  signal at 492 nm: 0.0847 A492
[21]
  signal at 492 nm: 0.0771 A492
[22]
  signal at 492 nm: 0.25 A492
[23]
  signal at 492 nm: 0.0697 A492
[24]
  signal at 492 nm: 0.0736 A492
[25]
  signal at 492 nm: 0.806 A492
[26]
  signal at 492 nm: 1.42 A492
